{
  "source": "patent US20250304916A1",
  "about": "“METHODS AND COMPOSITIONS FOR GENERATING VASCULAR LEPTOMENINGEAL CELLS” (Trailhead Biosystems Inc., priority 2024, published 2025)",
  "molecules": {"B1": {"name": "NT-3: neurotrophin-3, a Trk C pathway agonist (protein, UniProt P20783 139-257, looked up)", "Neurotrophin-3": "YAEHKSHRGEYSVCDSESLWVTDKSSAIDIRGHQVTVLGEIKTGNSPVKQYFYETRCKEARPVKNGCRGIDDKHWNSQCKTSQTYVRALTSENNKLVGWRWIRIDTSCVCALSRKIGRT"}},
  "test_system": "MBP expression",
  "assay": "HD-DoE 8-factor model (stage 4), optimized for maximum expression of MBP",
  "format": "cell-based, human",
  "conditions": "model optimized for MBP at 274; FIG. 6",
  "data": [
    {"molecule": "B1", "values": [
      {"measurement": "factor contribution, positive impact on MBP expression", "result": 12.1}
    ]}
  ]
}
